Laboratory results from patent US10995119B2, “Peptide exhibiting hydrolytic activity and use thereof” (Okinawa Institute of Science and Technology School …, priority 2016, dated 2021).

What was measured:
[1] = target: Aβ11-29 (Homo sapiens, UniProt P05067); experiment: Hydrolysis activity against Aβ11-29
Experimental: (§6) Further, any change in activity caused by addition of human serum albumin (HSA, Wako Pure Chemical Industries, Ltd., final concentration 0.025%) also was measured.
(§7) As substrates, Aβ42 in the form of soluble powder (authentic sample, Peptide Institute Inc.) and fragment peptides thereof, namely, Aβ1-20, Aβ11-29, and soluble Aβ28-42, were used. […] In the case of MS analysis, the MS analysis was performed after applying 20 μl of the reaction solution to HPLC and collecting an aliquot of the peak.
As a substrate, Aβ11-29, which is a fragment peptide of Aβ42, was used. […] In the case of MS analysis, the MS analysis was performed after applying 20 μl of the reaction solution after the reaction for 6 days to HPLC and collecting an aliquot of the peak.
(§8) The present experiment examined activity against Aβ-Fs in Example 7.
The reaction solution V shown in FIG. 52 was incubated at 37° C. for a predetermined time, and autodigestion of ANA-YA4 (YRMI) and cleavage of Aβ11-29 were examined.
A reaction solution VI shown in FIG. 52 was incubated at 37° C. for a predetermined time, and cleavage of Aβ1-20 and Aβ11-29 by ANA-SA5 was examined.
(§9) As substrates, the same Aβ1-20 and Aβ11-29 as used in Example 7 were used.
The present example examined autodigestion and activity against Aβ-F of JAL 12-17 (YKGSGF) and JAL 12-16 (YKGSG). […] As a substrate, the same Aβ11-29 as used in Example 7 was used. The autodigestion was examined by causing the reaction in the same manner, except that the substrate was not added.

[2] = Autodigestion of the catalytic peptide (HPLC, MS); type: biochemical
Experimental: (§1) First, to a buffer solution (Tris-HCl, pH 6.5, final concentration: 100 mmol/l), JAL (final concentration: 0.2 mmol/l) and the fragment peptide of hMMP7 (final concentration 0.05 mmol/l) were added. […] Thereafter, the reaction solution was subjected to HPLC, and the peaks of JAL and the fragment peptide of hMMP7 were examined. HPLC was performed under the following conditions.
Next, the mechanism of autodigestion was examined using various mutants of JAL as hydrolytic peptides. To a reaction solution containing each of the mutants of JAL, a protease inhibitor (trade name: Roche cOmplete, Roche) was added to cause a reaction. One tablet of the protease inhibitor was dissolved in 1 ml of Milli-Q water, and then, 50 μl of the resultant mixture was added to the reaction solution. […] As a result, the autodigestion of all the peptides subjected to the measurement was inhibited (FIG. 16).
Autodigestion in Box B was examined.
JAL-TA9 was reacted in the same manner except that a substrate was not added to examine the autodigestion of JAL-TA9.
The influence of an inhibitor on autodigestion of JAL-TA9 was examined. […] As the protease inhibitor, the serine protease inhibitor AEBSF, which inhibited the autodigestion of JAL 12-22 C19M in the item (6) in Example 4, was used.

[3] = target: Aβ1-20 (Homo sapiens, UniProt P05067); experiment: Hydrolysis activity against Aβ1-20
Experimental: as §6, §7, §8, §9

[4] = target: PrP 175-189 (Homo sapiens, UniProt P04156)
[5] = target: soluble Aβ1-42 (Aβ42 authentic sample) (Homo sapiens, UniProt P05067); experiment: Hydrolysis activity against soluble Aβ1-42 (authentic sample); settings: Example 9, chimera 0.2 mmol/l, PBS, HSA
Experimental: as §7
Aβ42 was used as a substrate. […] In the case of MS analysis, the MS analysis was performed after applying 20 μl of the reaction solution after the reaction for 7 days to HPLC and collecting an aliquot of the peak.

[6] = target: SOD1 2-12 (Homo sapiens, UniProt P00441); experiment: Hydrolysis activity against SOD1 2-12; type: biochemical
Source text: (§2) In JAL 1-22 C19M and JAL 7-22 C19M, Cys residues contained in JAL form S—S bonds during a reaction, and this makes fragment analysis difficult. On this account, JAL 1-22 and JAL 7-22 were modified so as to substitute Cys residues by Met.

[7] = target: SOD1 2-38 (Homo sapiens, UniProt P00441); experiment: Hydrolysis activity against SOD1 2-38; type: biochemical
Experimental: As a control, physiological saline (0.9 w/v %) was used instead of the buffer solution. […] Also, it is considered that physiological saline is suitable for storage of JAL before use, for example.
Next, an experiment was conducted to consider an optimal pH for activity using JAL as the hydrolytic peptide and SOD1 2-38 as a substrate.
Metal ions to be added to a reaction solution were Zn^2+, Ca^2+, Co^2+, or combinations thereof. The concentrations of the metal ions in the respective reaction solutions were as follows: 10 mmol/l for Ca^2+; and 5 μmol/l for the other metal ions.
as §2

[8] = target: SOD1 12-38 (Homo sapiens, UniProt P00441); experiment: Hydrolysis activity against SOD1 12-38; type: biochemical; settings: pH 6.5 or 7.5, 3 or 4 days
[9] = target: SOD1 53-70 (Homo sapiens, UniProt P00441); experiment: Hydrolysis activity against SOD1 53-70; type: biochemical; settings: pH 6.5 or 7.5, 3 or 4 days
[10] = target: T1, hMMP7 26-50 (Homo sapiens, UniProt P09237); experiment: Hydrolysis activity against hMMP7 26-50 (HPLC, MS); type: biochemical
T1 construct: host or cells: synthetic peptide
T1 sequence (P09237 26-50 limits assumed): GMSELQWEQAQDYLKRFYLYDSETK
Experimental: (§3) The present example examined whether a synthetic peptide JAL has hydrolysis activity against synthetic peptides derived from the prodomain of human matrix metalloprotease 7 (hMMP7).
(§4) The following JAL was used as a hydrolytic peptide, and hMMP7 42-50 or hMMP7 26-50 was used as a substrate.
as §1
(§5) Then, in HPLC, aliquots of the peaks were collected (each 20 μl), and fragment identification was performed by mass spectrometry (ABI QSTAR Elite system) (referred to as “MS” hereinafter). MS was performed by a flow injection method under the following conditions.

[11] = target: T2, hMMP7 1-42 (Homo sapiens, UniProt P09237); experiment: Hydrolysis activity against hMMP7 1-42, optimal pH; type: biochemical; settings: 5 days
T2 sequence (P09237 18-42): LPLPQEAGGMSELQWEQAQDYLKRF
Source text: The pH of the reaction solution was adjusted using an acetate buffer solution in the pH range from 3.5 to 6.0 and using a Tris-HCl buffer solution in the pH range from 6.5 to 8.0. In either case, the final concentration was set to 150 mmol/l.

[12] = target: T3, hMMP7 42-50 (Homo sapiens, UniProt P09237); experiment: Hydrolysis activity against hMMP7 42-50 (HPLC, MS); type: biochemical
T3 construct: host or cells: synthetic peptide
Experimental: as §3, §4, §1, §5

[13] = target: SOD1 115-154 (Homo sapiens, UniProt P00441); experiment: Hydrolysis activity against SOD1 115-154; type: biochemical; settings: pH 6.5 or 7.5, 3 or 4 days
[14] = Example 5 (1), JAL 14-18 and mutants
[15] = JAL 0.2 mmol/l, substrate 0.05 mmol/l, Tris-HCl pH 6.5, 37° C., 14 days, HPLC

Sequence of SOD1 2-38 (P00441 2-38 limits assumed): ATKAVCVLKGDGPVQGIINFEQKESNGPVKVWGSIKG
Sequence of SOD1 12-38 (P00441 12-38 limits assumed): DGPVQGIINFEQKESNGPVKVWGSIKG
Sequence of SOD1 115-154 (P00441 115-154): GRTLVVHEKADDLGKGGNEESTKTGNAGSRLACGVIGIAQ

Substance: AISSSMHSLYGLGLGS [Tob1 221-236]
- hydrolysis activity against Aβ11-29 ([1]; Example 6 (3)): exhibited activity
- autodigestion ([2]; Example 6, HSA added, 5 days): fragments suggesting autodigestion of Tob1 221-236 were observed

Substance: AKGSGFRMI
- hydrolysis activity against Aβ11-29 ([1]; Example 3 (6)): exhibited activity

Substance: APEKPYKGSGFRMIHA
- hydrolysis activity against Aβ11-29 ([1]; Example 3 (6)): exhibited activity

Substance: DSGFR
- hydrolysis activity against Aβ1-20 [3, 14]: strong activity

Substance: EKPYKGSGFRMI
- hydrolysis activity against Aβ11-29 ([1]; Example 3 (6)): exhibited activity

Substance: FPEKPCKGSGYRCIRI [BTG1 7-22]
- hydrolysis activity against PrP 175-189 [4]: exhibited activity

Substance: FVIFLDVKHFSPEDLTVK-AA-YKGSGFRMI (FVIFLDVKHFSPEDLTVKAAYKGSGFRMI) [chimera peptide]
- degradation of Aβ11-29 (HPLC) ([1]; Example 9, chimera 0.2 mmol/l, PBS, HSA): degraded Aβ11-29
- degradation of Aβ42 (HPLC) [5]: degraded Aβ4211-29 from Day 1

Substance: GSGFR
- hydrolysis activity against Aβ1-20 ([3]; Example 3 (2), (6)): exhibited activity
- hydrolysis activity against Aβ1-20 [3, 14]: strong activity

Substance: GSGHR
- hydrolysis activity against Aβ11-29 [1, 14]: strong activity

Substance: GSGQR
- hydrolysis activity against Aβ11-29 [1, 14]: strong activity

Substance: GSGVR
- hydrolysis activity against Aβ1-20 [3, 14]: strong activity

Substance: GSGYR
- hydrolysis activity against Aβ1-20 [3, 14]: strong activity

Substance: HSDCPSKGQAFRCIRI [BTG4 7-22]
- hydrolysis activity against PrP 175-189 [4]: exhibited activity

Substance: KYEGHWYPEKPYKGSGFRCIHI [JAL]
- cleavage sites, fragment identification by MS [6]: a plurality of sites indicated with arrows were cleaved
- hydrolysis activity against SOD1 2-12 ([6]; pH 6.5 or 7.5, 3 or 4 days): has activity
- cleavage sites, fragment identification by MS [7]: a plurality of sites indicated with arrows were cleaved
- hydrolysis activity against SOD1 2-38 ([7]; Tris buffer solution at various concentrations, 1 or 4 days): exhibited activity regardless of the concentration of the Tris buffer solution
- hydrolysis activity against SOD1 2-38 ([7]; assay buffer solution (50 mmol/l Tris-HCl pH 7.5, NaCl, Ca, Zn, Briji35, NaN3) vs Tris buffer pH 6.5, 0, 1, 3 days): cleavage by JAL was observed earlier
- hydrolysis activity against SOD1 2-38 ([7]; only Milli-Q water (0 mmol/l Tris)): did not exhibit activity
- hydrolysis activity against SOD1 2-38 ([7]; pH 6.5 or 7.5, 3 or 4 days): strong activity
- hydrolysis activity against SOD1 2-38 ([7]; pH 6.5 to 8.0 in increments of 0.5, 1 day): exhibited activity at all the pH values
- hydrolysis activity against SOD1 2-38 ([7]; physiological saline (0.9 w/v %) instead of buffer): did not exhibit activity
- hydrolysis activity against SOD1 2-38 ([7]; with or without Zn2+, Ca2+, Co2+, 1 day): exhibited activity regardless of the presence or absence of the metals
- hydrolysis activity against SOD1 12-38 [8]: has activity
- hydrolysis activity against Aβ1-20 ([3]; Example 3 (2), (6)): has activity
- hydrolysis activity against Aβ1-20 ([3]; PBS (pH 7.4), 3 or 5 days): exhibited activity
- hydrolysis activity against Aβ1-20 ([3]; phosphate buffer solution, 3 or 5 days): did not exhibit activity
- hydrolysis activity against SOD1 53-70 [9]: strong activity
- cleavage of substrate, fragment identification by MS ([10]; 16 days): cleaved at a plurality of sites
- hydrolysis activity against hMMP7 26-50 [10, 15]: has activity
- hydrolysis activity against hMMP7 1-42 ([11]; pH 3.5 to 6.0, acetate buffer 150 mmol/l): exhibited activity
- hydrolysis activity against hMMP7 1-42 ([11]; pH 6.5 to 8.0, Tris-HCl 150 mmol/l): the results obtained were the same as that obtained after a lapse of 0 days from the start of the reaction
- cleavage of substrate, fragment identification by MS ([12]; 16 days): cleaved at a plurality of sites
- hydrolysis activity against hMMP7 42-50 [12, 15]: has activity
- hydrolysis activity against SOD1 115-154 [13]: did not exhibit activity
- autodigestion ([2]; Tris-HCl pH 6.5, 37° C., 14 days, with hMMP7 fragment): autodigestion of JAL occurred
